Experimental data published in patent US5633227A, “Secretory leukocyte protease inhibitor as an inhibitor of tryptase” (Miles, Inc., priority 1994, dated 1997).
“And” between values parts separate entries of the source, which are not always exact repeats. Equal entries are not always repeated. Where two headings read alike, the source gives them in different places.

What was measured:
human mast cell tryptase = test: VIP assay for tryptase activity (Dns-VIP hydrolysis, HPLC/fluorescence, Dixon plot); format: biochemical; settings: rate of loss of full-length VIP (1-28), 0.2 and 0.8 μM VIP, 37° C., read-out: Ki for inhibition of tryptase degradation of full length Dns-VIP
Description: In a typical assay, mast cell tryptase (12.5 pM) was incubated at 37° C. with dansyl-VIP (0.2-2 μM) in 100 mM Tris-HCl (pH 8.0) containing 1 μg/ml porcine mucosal heparin and 0.02% Triton X-100 in a final volume of 2.0 ml. To some samples, secretory leukocyte protease inhibitor was added to a final concentration of between 0 and 107 nM. The tryptase was pre-incubated with the SLPI, if added, for 5 min. at 37° C. before initiating the reaction by the addition of Dns-VIP. Aliquots (250 μl) were removed at 0, 2.5, 5.0, 7.5, 10, and 20 minutes to micro-vials (Sunbrokers) and the reaction terminated by the addition of TFA to a final concentration of 3% (v/v). The acidified reaction mixture was subjected to chromatography on a C-18 reverse-phase column (Vydac, 5 micron, 0.46×25 cm). Peptide hydrolysis was monitored by HPLC using a Hewlett Packard HP1090 unit complete with binary solvent delivery and autoinjection capability. Fluorescent detection (postcolumn) was performed with an inline Gilson Model 121 filter fluorimeter (excitation at 310-410 nm, emission at 480-520 nm). Dns-VIP fragments were separated from any unconverted Dns-VIP using a linear gradient of 69:31 (v/v) to 50:50 (v/v) C:D over 5.5 minutes (C=100 mM sodium acetate, pH 6.5 plus 0.2% sodium azide, D=80% ACN in water), with return to 69:31 (v/v) C:D at 6.5 minutes. Chromatography was performed at 1.0 ml/min at 25° C. […]

tryptase = test: GPK-AMC assay for tryptase activity (Dixon plot); format: biochemical, human; settings: Table V footnote
Description: Tryptase activity was measured according to the procedure of Schwartz, et al., J. Biol. Chem., 261, 7372-7379 (1986) , with minor modifications, using Gly-Pro-Lys-Aminomethylcoumarin (GPK-AMC) as a substrate. The reaction was performed in assay buffer (0.1M Tris, pH 8.0, 10 μg/ml heparin) at room temperature in a 96-well microtiter plate (Perkin-Elmer, Norwalk, Conn.). The amount of coumarin produced by tryptase was determined by measuring the fluorescence (ex=372 nm, em=432 nm) on a Perkin-Elmer LS-50B fluorimeter equipped with a plate reader. 50 μl of tryptase (final concentration of 333 pM) was mixed with either 50 μl of the sample to be tested or with assay buffer and incubated for 5 min. at room temperature. […] The fluorescence intensity was measured every 5 minutes. For samples that were being tested for modulators of tryptase activity, the % inhibition for each fraction was determined by:
Inhibitory activity against tryptase and bovine trypsin was measured using Gly-Pro-Lys-aminomethylcoumarin as a substrate. […] The amount of coumarin produced was determined by measuring the fluorescence (ex=370 nm, em=432 nm) on a Perkin-Elmer LS-50B fluorimeter. […] The reaction was started by the addition of the substrate GPK-AMC (20 or 40 μM final) and the increase in fluorescence was measured over a 2 minute period. […]

Response in GPK-AMC tryptase assay (tryptase): biphasic response
B1: secretory leukocyte protease inhibitor (protein)
chain: SGKSFKAGVCPPKKSAQCLRYKKPECQSDWQCPGKKRCCPDTCGIKCLDPVDTPNPTRRKPGKCPVTYGQCLMLNPPNFCEMDGQCKRDLKCCMGMCGKSCVSPVKA
Ki (human mast cell tryptase; listed as Full SLPI): 8 nM
Ki (human mast cell tryptase): 8 nM and ~8 nM
